B1: TAF7L (parent)
chain: PDVENEVKRLLRSDAEAVSTRWEV
B2: ZNF277 (parent)
chain: ILREELQKQRLREILEQQQQERND
B3: C22orf15 (parent)
chain: RGRHEQSPTSRPRKVSSLPPRSC

Variants of: B1
Assay: protein stability index of a GFP-peptide fusion (GPS, HEK-293T) (PSI 1-6); higher = more stable
Details: c terminus: a fixed tail appended
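Also: lentivirally expressed fusions sorted by FACS into six bins by GFP to DsRed ratio, PSI derived from sequencing read proportions per bin multiplied by bin number.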

Protein stability index: each site, then its substitutions
V3: G 3.05, C 3.75, F 3.32, D 4.13, E 4.74
D2: Q 2.62, L 2.56, H 2.69, Y 2.81, M 3.13, A 3.91, T 2.59, V 3.2, F 3.15, I 1.94, K 3.71, P 3.58, C 2.9
P1: H 2.27, K 3.27, N 3.43, T 3.29, D 2.96, R 2.36, L 3.52, A 2.92, S 4.05, Y 3, I 2.79, E 4.44

Variants of: B2
Assay: as above
Details: c terminus: a fixed tail appended

Protein stability index: each site, then its substitutions
Q20: R 4.41, T 3.29, V 3.74, N 4.3, P 4.17, S 4.37, W 3.18, Y 4.16
R22: M 4.45, N 4.75, K 4.63, P 4.57, E 4.61, L 4.46, V 3.53, F 3.81, S 4.73, H 4.4, D 4.92, W 3.72, G 4.67, C 4.48, I 3.81, T 4.76, A 4.4, Q 4.44, Y 4.54
N23: H 4.04, L 3.92, R 3.75, V 3.89, P 4.47, S 4.05, G 3.98, W 3.22, Y 3.56, K 4.1, M 4.14, Q 4.13, C 3.98, T 4.37, D 4.96, A 4.53, F 3.73, I 4.02, E 4.59
D24: G 3.77, M 4.14, E 4.12, F 3.26, K 3.83, I 3.64, P 3.85, S 3.68, Q 4.18, A 3.47, W 2.73, Y 3.7, T 4.01, C 3.91, N 4.08, R 3.48, L 4.08, V 4.05, H 3.16
E21: W 2.95, K 4.26, C 3.04, Y 3.73, H 4.61, M 3.73, T 4.09, G 4.04, N 3.9, R 2.69, V 3.2, S 4.41, P 3.04, I 2.94, L 3.52, D 4.22, A 4.39, F 3.4, Q 3.38

Variants of: B3
Assay: as above
Details: c terminus: native

Protein stability index, by site and new letter:
Q6: I 4.15, T 1.97, L 2.54, V 3.92, Y 2.05, S 1.79, W 4.38
L18: D 1.5, C 2.88, W 3.64, Y 2.29, M 3.65, A 1.68, H 3.38, T 4.07, V 3.25, I 2.76
R11: A 2.33, Q 3.32, K 3.4, T 2.51, S 2.31, G 2.87, W 5, P 3.98, N 2.35
T9: Y 2.35, S 2.58, H 1.83, A 3.73, K 2.44, C 1.52, R 3.3, G 2.07
P20: Y 2.1, S 1.99, V 2.26, A 3, D 3.82, F 4.13, E 2.84, C 1.58, I 2.72
R1: W 3.77, V 1.73, Y 3.26, A 3.06, D 2.81, M 3.56
R21: C 3.38, N 4.68, P 4.74, H 4.53, L 3.37, T 4.25, V 2.88, Q 4.51, S 4.8, F 4.25, A 4.53, M 3.66, I 2.83, W 4.43, G 1.74, Y 4.92, D 5.37, K 5.13, E 5.2
C23: T 2.97, H 2.29, N 5.09, W 2.64, Q 2.29, Y 3.2, L 2.42, V 3.28, F 3.5, I 1.8
E5: F 2.19, R 2.19, L 2.09, Y 4.38, K 2.68, N 2.19, P 2.93
S10: K 1.93, D 1.09, H 1.87, R 1.8, V 2.85, P 1.61, A 1.64, F 1.99, T 2.83, C 2.51
G2: Q 2.2, I 2.64, C 1.57, R 2.96, E 1.27, F 2.04, S 3.1, H 1.16, M 1.9, D 2.01, Y 3.84
S16: W 1.81, Q 2.92, V 3.6, D 2.87, T 2.07, H 2.57, F 3.32, K 2.94, Y 3.44, M 2.63, N 2.53, I 1.98, A 1.95, P 2.77
R3: K 2.27, V 2.05, C 3.01, L 4.27, H 2.76, I 3.03
P12: M 1.89, T 2.55, H 2.55, W 2.55, Y 3.13, G 1.4, D 2.8, Q 3.88
V15: T 1.82, R 2.8, D 1.97, F 3.96, P 4.67, H 4.12, L 3.74, C 2.52, N 2.71, Q 2.22, G 2.29, S 2.1, K 3.42
H4: A 1.91, N 3.03, V 2.38, C 2.55, F 2.91, T 3.06, R 3.58, I 3.17
P8: Q 2.65, N 2.71, G 2.55, R 4.11, C 3.78, K 3.28, H 3.48
K14: F 3.52, V 3.29, I 2.67, Y 2.54, E 3.42, W 1.93, G 3.13, Q 4.04, D 3.71, N 1.24, T 4.73
S17: Y 2.45, R 3.79, G 1.99, N 2.99, K 1.93, I 2.3, E 3.27, M 1.89, Q 2.34, P 3.73
P19: Q 1.44, Y 3.14, A 4.11, S 3.79, R 2.13, L 3.07, M 1.93, F 2.19, I 1.81, T 4.33, V 2.86, D 3.23
S22: D 1.39, P 3.03, L 2.35, H 4.07, Q 2.27, E 2.6, T 3.62
R13: L 3.56, W 1.54, Q 1.47, F 2.43, D 4.32, H 3.08, M 3.68, Y 1.49, E 2.88, S 2.15, C 3.56, T 2.73
S7: R 2.69, N 2.44, D 2.76, F 2.94, V 3.68, Y 2.32

Reference: the supplement of paper PMC10567573
